The assay concerns the target ABD-fused VP1 (ABD-VP1) protein vaccine (not stated | Coxsackievirus B3) (UniProt P03313). As to the kind of experiment: ELISA; sandwich ELISA on serum of mice injected subcutaneously with ABD-VP1 or VP1: plates pre-coated with anti-VP1 antibody, detection with anti-albumin antibody and HRP-labeled secondary antibody, absorbance at 450 nm; the complex formed in vivo. Background: ELISA stands for enzyme-linked immunosorbent assay.

Regarding “mouse serum albumin (MSA) (from UniProt P07724 25-608) (natural protein)”, the OD450 was 0.7 OD450.
